Source: patent US20030118557A1, “Axon repair” (priority 2001, published 2003)

System: dorsal root ganglion (DRG) neurons
Test: short-term in vitro axon outgrowth assay with adult DRG neurons from transgenic mice
Assay type: cell-based
Conditions: for propensity / number of adult DRG neurons that extended axons: acute outgrowth assay, naive neurons; for extension of long (>300 μm) axons: naive adult DRG neurons from transgenic mice, short-term culture
Procedure: For the in vitro analysis, dorsal root ganglion (DRG) neurons from adult mice (>8 weeks) were dissociated essentially as described (Smith et al, J. Neurosci. 17:646-658 (1997)), and centrifuged at 200×g for 10 minutes through a cushion of 10% Ficoll in F14 culture medium to remove myelinated axons, cellular debris and non-neuronal cells. Neurons were resuspended in serum-free F14 medium containing N1 supplements, and plated on polylysine/laminin coated glass coverslips as described (Smith et al, J. Neurosci. 17:646-658 (1997)). Cells from 12-14 ganglia were plated in 12 wells of a standard 24-well plate. After 18-24 hours, cultures were fixed in 4% paraformaldehyde for 30 minutes at room temperature, washed and stained with antibodies to detect neurons expressing chicken CAP-23 (monoclonal antibody 15C1) and chicken GAP-43 (rabbit polyclonal antibody) (Caroni et al, J. Cell Biol. 136:679-692 (1997), Aigner et al, Cell 83:269-278 (1995)). To visualize all neuronal processes, cultures were stained with antibodies to β III tubulin (MAB 1637; Chemicon, Temecula, Calif.). Cells were viewed with a CCD camera and analyzed with IPLab 3.2 for the Macintosh (Scanalytics, Inc., Fairfax, Va.). Only neurons that stained strongly for the appropriate transgene(s) were analyzed. In control cultures, cells that stained strongly for the neuron-specific β III tubulin were analyzed. Cells with processes greater than 2 cell body diameters were scored. The length of the longest process for each cell, and the number of branches formed along that process, were then measured.
To identify genes responsible for the onset of axon regeneration, a short-term in vitro assay was used that monitors a transcription-dependent switch in axon extension induced in DRG neurons by axon injury (Smith et al, J. Neurosci. 17:646-658 (1997)). Neurons are removed from adult animals and cultured for 18-24 hours (Smith et al, J. Neurosci. 17:646-658 (1997)). Because the neurons are axotomized during this removal, they will eventually respond by inducing the full complement of growth-associated genes (Smith et al, J. Neurosci. 17:646-658 (1997)). Over the first 24 hours in culture, however, axon outgrowth depends only on genes that were already expressed in the neurons at the time of their removal from the animal (Smith et al, J. Neurosci. 17:646-658 (1997)). Neurons isolated from adult mice with no prior manipulation (naive neurons) supported a limited amount of outgrowth (Smith et al, J. Neurosci. 17:646-658 (1997)) and FIG. 1), characterized by the emergence of relatively short and highly branched axons (FIGS. 2 and 3). In contrast, neurons that had responded to a peripheral nerve lesion several days before removal were much more likely to extend axons (FIG. 1), and those axons were long and sparsely branched (FIGS. 2 and 3). This “elongating” growth resembles the extension required for nerve regeneration in vivo, and reflects the expression of genes induced by peripheral nerve injury (Smith et al, J. Neurosci. 17:646-658 (1997)).

| Molecule | propensity / number of adult DRG neurons that extended axons | extension of long (>300 μm) axons | modal length of axons (naive adult DRG neurons, persistent transgene expression, 18-24 hours in culture) |
| --- | --- | --- | --- |
| GAP-43: growth-associated growth cone protein; chicken GAP-43 transgene expressed in mouse neurons under Thy-1 promoter (protein, UniProt P35001 1-246, looked up, transgene in mouse neurons, growth-associated growth cone protein; chicken GAP-43 transgene expressed in mouse neurons under Thy-1 promoter) Neuromodulin: MLCCMRRTKQVEKNEDGDQKIEQDGIKPEDKAHKAATKIQASFRGHITRKKLKGEKKADAPASESEAADKKDEGPAGGAAENKESEASAATEASAADSAQLDEGSKDSSVPAEEKKGNGAADTGSEQPAPQAATPAASSEEKPAAAAETESATKASTDNSPSLKADEAQDKEEPKQADVPAADTTATTTPAAEDATAKATAQPQMETVESSQTEEKTDAVEETKPTESAQQEEVKEEESKADQENA | increased the propensity | Only a small fraction | 100-150 μm |
| CAP-23: growth cone protein; chicken CAP-23 transgene expressed in mouse neurons under Thy-1 promoter (protein, UniProt P23614 2-244, looked up, transgene in mouse neurons, growth cone protein; chicken CAP-23 transgene expressed in mouse neurons under Thy-1 promoter) Brain acid soluble protein 1 …: GGKLSKKKKGYSVNDEKAKDKDKKAEGAATEEEETPKEAEDAQQTTETTEVKENNKEEKVEKDAQVSANKTEEKEGEKEKTVTQEEAQKAEPEKSEAVVDAKVEPQKNNEQAPKQEEPAAASAPAASSEAPKTSEPSSDAKASQPSEATAPSKADDKSKEEGEAKKTEAPATPAAQETKSEVAPASDSKPSSSEAAPSSKETVAATAAPSSTAKASDPSAPPEEAKPSEAPATNSDQTIAVQD | increased the number | did not elicit extension of long axons | – |
